Test results: publication PMC4133399

Assays:
[1] = target: NBD-labelled gp41 TMD peptide (HIV-1); assay: FRET or BRET; NBD-labelled gp41 TMD or mutant peptide (donor, 0.1 µM) in PC∶Chol 9∶1 LUVs, titrated with Rho-labelled TLR2 TMD peptide at 1∶40, 1∶20, 1∶10 and 1∶1 acceptor∶donor; decrease of donor emission at 530 nm
[2] = target: NBD-labelled gp41 mutant peptide (HIV-1); assay: as above
[3] = target: TLR2 protein of RAW264.7 murine macrophages (mouse (endogenous in RAW264.7)) (UniProt Q9QUN7)
[4] = target: TLR2 protein of RAW264.7 murine macrophages (mouse (endogenous in RAW264.7)) (UniProt Q9QUN7); remark: listed apart in the source
[5] = target: GpA G83I TMD (LexA-TMD-MBP chimera); assay: GALLEX assay (β-gal activity of LexA-TMD-MBP chimera proteins); conditions: n = 3; strong dimerization results in low β-gal activity; parent: est. 20; read off a plot
[6] = target: LexA-TMD-MBP chimera protein with the TLR2 TMD (GALLEX) (UniProt O60603); assay: as above; conditions: n = 3; strong dimerization results in low β-gal activity; parent: est. 48; read off a plot
Chain of UniProt O60603 (O60603 21-784, change not shown): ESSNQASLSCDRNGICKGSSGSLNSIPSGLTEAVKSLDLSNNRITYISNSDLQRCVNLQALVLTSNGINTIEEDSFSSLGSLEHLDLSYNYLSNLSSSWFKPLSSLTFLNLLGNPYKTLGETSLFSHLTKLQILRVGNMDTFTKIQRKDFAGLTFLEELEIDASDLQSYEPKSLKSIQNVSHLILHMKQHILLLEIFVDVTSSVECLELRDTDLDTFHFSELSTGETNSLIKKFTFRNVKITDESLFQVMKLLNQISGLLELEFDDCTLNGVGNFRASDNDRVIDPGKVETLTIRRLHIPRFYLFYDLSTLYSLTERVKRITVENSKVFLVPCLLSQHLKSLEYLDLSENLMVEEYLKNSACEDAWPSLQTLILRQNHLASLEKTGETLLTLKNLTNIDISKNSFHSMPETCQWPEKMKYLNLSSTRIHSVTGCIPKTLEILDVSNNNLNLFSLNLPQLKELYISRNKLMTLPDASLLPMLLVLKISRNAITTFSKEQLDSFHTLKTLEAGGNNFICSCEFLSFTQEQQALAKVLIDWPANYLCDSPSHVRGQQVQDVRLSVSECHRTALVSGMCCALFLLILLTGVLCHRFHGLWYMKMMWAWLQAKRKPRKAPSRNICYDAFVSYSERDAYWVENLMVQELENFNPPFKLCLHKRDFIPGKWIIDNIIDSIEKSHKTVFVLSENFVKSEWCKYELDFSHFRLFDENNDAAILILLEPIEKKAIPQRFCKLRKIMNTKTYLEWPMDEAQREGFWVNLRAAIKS

Chain of UniProt Q9QUN7 (Q9QUN7 25-784): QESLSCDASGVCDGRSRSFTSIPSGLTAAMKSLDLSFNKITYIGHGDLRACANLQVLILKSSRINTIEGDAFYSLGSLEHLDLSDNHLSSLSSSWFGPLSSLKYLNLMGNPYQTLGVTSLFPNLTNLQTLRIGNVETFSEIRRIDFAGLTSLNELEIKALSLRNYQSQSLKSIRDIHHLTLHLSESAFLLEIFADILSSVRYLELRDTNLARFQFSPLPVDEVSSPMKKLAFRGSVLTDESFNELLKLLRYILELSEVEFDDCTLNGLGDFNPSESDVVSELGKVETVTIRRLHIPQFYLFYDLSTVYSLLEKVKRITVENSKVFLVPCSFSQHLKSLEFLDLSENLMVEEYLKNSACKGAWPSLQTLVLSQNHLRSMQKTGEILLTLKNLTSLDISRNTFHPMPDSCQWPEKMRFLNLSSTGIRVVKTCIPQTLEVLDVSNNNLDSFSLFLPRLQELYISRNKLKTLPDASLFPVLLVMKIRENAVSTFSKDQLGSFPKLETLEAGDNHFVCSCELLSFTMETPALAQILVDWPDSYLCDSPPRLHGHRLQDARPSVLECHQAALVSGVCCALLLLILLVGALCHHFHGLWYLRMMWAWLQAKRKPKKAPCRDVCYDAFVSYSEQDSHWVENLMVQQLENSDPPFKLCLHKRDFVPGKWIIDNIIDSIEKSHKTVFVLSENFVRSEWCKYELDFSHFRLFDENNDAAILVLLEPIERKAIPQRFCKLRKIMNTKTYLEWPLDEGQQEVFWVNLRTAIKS

For Rho-labeled TLR2 TMD peptide, the decrease of the NBD donor emission at 530 nm (FRET) at 1∶1 ratio [1] was over 60% and the decrease of the NBD donor emission at 530 nm (FRET) [2] was under 25%.

In the case of unlabeled WT gp41 TMD peptide, the MCP1 mRNA expression in LTA-activated RAW264.7 cells (real-time PCR), decrease against non-treated cells [3] is reported as 45%, the TNFα mRNA expression in LTA-activated RAW264.7 cells (real-time PCR), decrease against non-treated cells [3] is reported as 72% and the ERK1,2 phosphorylation in RAW264.7 cells 20 minutes after LTA, cells pre-treated with the peptide for 2 hours (decrease of p-ERK band intensity) [4] is reported as over 50%.

“LexA-TMD-MBP chimera protein with the Glycophorin A (GpA) TMD (GALLEX) G83I” showed a response [5] of 100%.

“LexA-TMD-MBP chimera protein with the gp41 wild type TMD (GALLEX) (from UniProt P04578) gp41 mutant” showed a response [6] of 68%.
